# Measured values published in patent US8501695B2, “Tissue kallikrein for the treatment of diseases associated with amyloid protein” (DiaMedica, Inc., priority 2007, dated 2013).
# Several values for one entry are separate records, joined by “and”; a condition that tells them apart may be missing. Equal entries are not always repeated.
# Experiment: Pharmacokinetic study of intranasal tissue kallikrein (125I-KLK1 tissue concentrations by gamma counting)
# Assay type: in vivo
# Conditions: rat, 30 min. end point
# Description: The purpose of this study was to quantify the amount of tissue kallikrein (KLK1) reaching the central nervous system and peripheral tissues after intranasal administration to anesthetized rats. At 30 min after KLK1 administration, animals were transcardially perfused with ice-cold saline followed by paraformaldehyde fixative and tissues were dissected. The amount of radiolabeled KLK1 in each tissue sample was quantified by gamma counting and tissue concentrations were calculated using tissue weight and gamma counting of standards of the dosing solutions
# Adult male Sprague Dawley rats (n=10, mean 335.4 g±4.57 g SE) were used for this study. Animals were group housed in the Regions Hospital Animal Care Facility with free access to food and water. Animals were kept on a 12 h light cycle. All experimental procedures were approved by the Animal Care and Use Committee at Regions Hospital under IACUC protocol number 08-022.
# Tissue kallikrein was sent to Perkin-Elmer for ^125I-labelling (Quote NEX-084, lot C1541583). Non-labeled KLK1 from Sigma (cat#K3627-1KU, lot 018K1441) was also used. Non-labeled KLK1 was dissolved in 1×PBS (10×PBS, Sigma, cat #P5493, lot 027K8405 diluted in sterile water). The average dose was 48.1 μL, 75 μCi, and 2.6 mg.
# • a. Prior to anesthesia, each rat was weighed. • b. An anesthesia cocktail was prepared and full, half, and quarter anesthesia doses were calculated according to the animal's weight with a full dose containing 30 mg/kg ketamine, 6 mg/kg xylazine, and 1 mg/kg acepromazine. • c. A 1-cc syringe fitted with a 25 G or 27 G, ½ inch needle was assembled and a full dose was drawn into the syringe for injection. • d. Rats were restrained in a towel as follows. Rats were placed ventral side down in the middle of a hand towel. The towel was then wrapped around the head and shoulders to restrain. Wrapped animals remained ventral side down while the left hind leg was located. • e. The left hind leg was drawn to the side and the needle was inserted just beneath the skin (subcutaneous) above the thigh. After ensuring that the needle was placed subcutaneously (and not intramuscularly), full doses were injected. Rats were placed in holding cages and the injection time noted. Animals should be under within 5 min. • f. Anesthesia was monitored throughout the procedures by assessing reflexes using pinching of the hind paw or tail. If a reflex was present, a half or quarter dose booster was administered as necessary. • g. During drug administration, animals received a half dose booster roughly 20-25 min after initial dose. Intranasal Delivery of ^125I-KLK1 • a. Anesthetized rats were placed on their backs on a heating pad in a metal surgical tray. The heating pad was connected to a thermostat and was automatically regulated to maintain a 37° C. temperature based on continuous measurement from a rectal probe. • b. A 2″×2″ gauze pad was rolled tightly into a pillow, taped together, and under the neck to maintain a correct neck position horizontal with the counter. • c. A lead impregnated shield was placed between the surgical tray and the experimenter for protection against radiation. The dose solution, pipette, pipette tips, and waste receptacle were arranged behind the shield for easy access. • d. A 6 μL drop was loaded into the pipette behind the shield. • e. A cotton swab covered in parafilm was used to occlude one naris completely (the flat part of the swab was pushed gently against the naris to prevent airflow), while the 6 μL drop was expelled slowly from the pipette (held at a 45° angle from the rat's midline), forming a drop on the pipette tip. The drop was lowered onto the open naris to be inhaled. • f. After two minutes, the alternate naris was occluded and a 6 μL drop was administered in the same fashion. • g. A drop was administered as described above every two minutes to alternating nares until a total of 8 drops was delivered (4 to each naris) over 14 min. • h. […]
# [1] = individual animal, listed as kallikrien
molecule,measurement,setting,value
"tissue kallikrein: serine protease that cleaves kininogen into kallidin; polypeptide SEQ ID NO:1 (Sus scrofa kallikrein 1), KLK1 from Sigma (protein, listed as Sus scrofa, 125I label in one form) MWSLVMRLALSLAGTGAAPPIQSRIIGGRECEKDSHPWQVAIYHYSSFQCGGVLVDPKWVLTAAHCKNDNYQVWLGRHNLFENEVTAQFFGVTADFPHPGFNLSLLKNHTKADGKDYSHDLMLLRLQSPAKITDAVKVLELPTQEPELGSTCQASGWGSIEPGPDDFEFPDEIQCVELTLLQNTFCADAHPDKVTESMLCAGYLPGGKDTCMGDSGGPLICNGMWQGITSWGHTPCGSANKPSIYTKLIFYLDWINDTITENP",concentration in Ventral Dura,"Avg, outliers removed",143.0 nM
same,concentration in Amygdala,[1],13.5 nM and 10.9 nM and 14.16 nM and 18.3 nM and 12.1 nM and 25.4 nM and 15.2 nM and 13.9 nM and 24.6 nM and 13.7 nM
same,concentration in Anterior Olfactory Nucleus,[1],23.1 nM and 15.1 nM and 24.0 nM and 20.5 nM and 19.3 nM and 44.8 nM and 29.2 nM and 25.2 nM and 45.6 nM and 21.2 nM
same,concentration in Anterior Trigeminal Nerve,[1],233.5 nM and 75.1 nM and 83.9 nM and 83.5 nM and 108.3 nM and 68.8 nM and 111.7 nM and 139.2 nM and 77.5 nM
same,concentration in Axillary Nodes (2),[1],44.6 nM and 38.9 nM and 58.8 nM and 44.4 nM and 43.9 nM and 48.8 nM and 28.6 nM and 33.5 nM and 47.7 nM and 34.0 nM
same,concentration in Blood Sample,[1],292.4 nM and 272.4 nM and 327.7 nM and 288.9 nM and 275.6 nM and 231.1 nM and 233.0 nM and 251.9 nM and 242.4 nM and 268.4 nM
same,concentration in Carotid Artery,[1],127.5 nM and 55.9 nM and 111.2 nM and 103.2 nM and 138.7 nM and 175.1 nM and 84.9 nM and 115.6 nM and 108.2 nM
same,concentration in Cerebellum,[1],9.3 nM and 10.6 nM and 10.06 nM and 13.2 nM and 11.2 nM and 12.2 nM and 8.6 nM and 14.7 nM and 7.8 nM
same,concentration in Cervical Nodes (2),[1],214.4 nM and 3.1 nM and 116.3 nM and 72.1 nM and 100.5 nM and 119.9 nM and 103.7 nM and 196.0 nM and 174.6 nM
same,concentration in Circle of Willis & Basilar Artery,[1],190.7 nM and 56.9 nM and 44.4 nM and 133.6 nM and 87.4 nM and 178.2 nM and 115.5 nM and 44.1 nM and 134.1 nM and 48.3 nM
same,concentration in Dorsal Dura,[1],116.0 nM and 92.5 nM and 118.2 nM and 156.9 nM and 116.8 nM and 131.0 nM and 132.9 nM and 242.5 nM and 89.5 nM
same,concentration in Esophagus,[1],118.0 nM and 66.9 nM and 109.6 nM and 87.7 nM and 68.1 nM and 40.9 nM and 65.1 nM and 85.4 nM and 128.1 nM and 82.4 nM
same,concentration in Extra Cortex,[1],10.3 nM and 11.3 nM and 12.40 nM and 13.3 nM and 13.8 nM and 17.2 nM and 12.8 nM and 16.6 nM and 9.8 nM
same,concentration in Extra Slice #1,[1],17.1 nM and 16.2 nM and 19.4 nM and 16.6 nM and 16.9 nM and 43.2 nM and 31.1 nM and 29.6 nM and 22.7 nM
same,concentration in Extra Slice #2,[1],9.2 nM and 11.0 nM and 12.33 nM and 17.0 nM and 11.7 nM and 28.5 nM and 17.6 nM and 17.3 nM and 27.0 nM and 15.6 nM
same,concentration in Extra Slice #3,[1],8.8 nM and 9.6 nM and 11.43 nM and 10.7 nM and 9.9 nM and 23.3 nM and 17.2 nM and 13.6 nM and 21.0 nM and 13.8 nM
same,concentration in Extra Slice #4,[1],7.5 nM and 8.6 nM and 9.4 nM and 9.9 nM and 18.4 nM and 14.7 nM and 10.5 nM and 17.0 nM and 11.8 nM
same,concentration in Extra Slice #5,[1],7.7 nM and 7.6 nM and 10.7 nM and 9.2 nM and 10.8 nM and 19.2 nM and 18.6 nM and 9.7 nM and 14.8 nM and 9.9 nM
same,concentration in Extra Slice #6,[1],7.9 nM and 8.1 nM and 12.1 nM and 10.5 nM and 12.2 nM and 16.7 nM and 10.4 nM and 14.8 nM and 9.5 nM
same,concentration in Frontal Cortex,[1],12.0 nM and 16.1 nM and 15.8 nM and 16.9 nM and 17.4 nM and 45.7 nM and 27.7 nM and 26.8 nM and 38.9 nM and 22.0 nM
same,concentration in Heart,[1],17.4 nM and 16.0 nM and 21.9 nM and 30.1 nM and 12.7 nM and 31.4 nM and 13.7 nM and 23.2 nM and 22.8 nM and 37.0 nM
same,concentration in Hippocampus,[1],7.0 nM (2×) and 11.6 nM and 10.6 nM and 8.8 nM and 16.4 nM and 13.4 nM and 13.7 nM and 8.2 nM
same,concentration in Hypothalamus,[1],17.1 nM and 11.9 nM and 21.1 nM and 15.8 nM and 17.4 nM and 37.6 nM and 28.8 nM and 15.7 nM and 38.9 nM and 17.3 nM
same,"concentration in Kidney (L, tip)",[1],179.0 nM and 213.3 nM and 187.5 nM and 115.0 nM and 24.6 nM and 35.5 nM and 103.9 nM and 240.4 nM and 212.2 nM and 36.9 nM
same,"concentration in Liver (R, superficial lobe)",[1],18.7 nM and 37.1 nM and 25.7 nM and 26.6 nM and 40.2 nM and 26.1 nM and 16.4 nM and 16.1 nM and 21.8 nM and 28.8 nM
same,concentration in Lower Cervical Spinal Cord,[1],5.3 nM and 6.6 nM and 7.3 nM (2×) and 5.2 nM and 4.7 nM and 7.0 nM and 6.5 nM and 10.1 nM and 10.9 nM
same,concentration in Lumbar Spinal Cord,[1],5.1 nM and 4.9 nM and 5.8 nM and 4.7 nM and 5.0 nM and 5.35 nM and 4.2 nM (2×) and 5.6 nM and 4.6 nM
